Results reported in patent US10391048B2, “Recombinant high-stability superoxide dismutase and application thereof” (Hangzhou Redox Pharmatech Co., Ltd., priority 2016, dated 2019).
Where “and” joins values, the source holds several entries; their conditions need not be identical. Equal values may be shown once. Marks after values point to notes of the source that are not given here.

Columns and labels:
[1] = test system: TNBS-induced colonitis zebrafish model; test: pathological analysis of intestinal tract tissue; format: in vivo; settings: 15 μg/mL, 48 hours
From the text: The fixed zebrafish was observed under the microscope for the colonic tissue and photographed for histopathological analysis, as described in the experimental results.

[2] = test system: copper sulfate induced zebrafish inflammation model; test: anti-inflammatory effect on copper sulfate-induced inflammation; format: in vivo; design: numbers of neutrophils (mean ± SE): dose or concentration left out as unconfirmed; settings: 5 hours; for Inflammation resolution rate (%): copper sulfate
Method: The specific method was described by d'Alencon et al., BMCBiology.
The images were analyzed by Nikon NIS-ElementsD3.10 advanced image processing software.

[3] = test system: tail amputation injury zebrafish inflammation; test: anti-inflammatory effect on inflammation of tail amputation injury; settings: 5 hours
Method: Model making: The model of zebrafish inflammation was established by mechanical amputation of tail fins of transgenic neutrophil fluorescent zebrafish.
The transgenic neutrophil fluorescent zebrafish were randomly selected and put in the six-well plate after mechanical amputation of tail fins, 30 per well. […] The normal control group and model control group were set at the same time. […] Image analysis was performed with Nikon NIS-Elements D3.10 advanced image processing software, the number of neutrophils (N) in zebrafish was calculated, and quantitatively analyzed. The formula of the rate of inflammation resolution was as follows:

[4] = test system: LPS-induced zebrafish inflammation model; test: anti-inflammatory effect on LPS-induced inflammation; settings: 5 hours; for numbers of neutrophils (mean ± SE): model control 17.8
Method: The zebrafish inflammation model was established by treatment of transgenic neutrophil fluorescent zebrafish through LPS injection.
The zebrafishes were randomly selected and put in the six-well plate, 30 per well. […] The normal control group and model control group were set at the same time. […] Image analysis was performed with Nikon NIS-Elements D3.10 advanced image processing software, the number of neutrophils (N) in zebrafish was calculated, and quantitatively analyzed. The formula of the rate of inflammation resolution was as follows:

zebrafish [5] = test: maximum non-lethal concentration (MNLC), 48 h treatment; format: in vivo; settings: for Death rate (%) / Death (tail): 48 hours; for Death (tail): 30 zebrafish
Method: 30 zebrafishes were treated in each experiment group;
During the experiment course, count dead zebrafish every day and remove dead zebrafish;

[6] = 1 h
Method: (§1) The enzyme activity of SOD was determined by pyrogallol autoxidation method.

[7] = test system: TNBS-induced colonitis zebrafish model; test: therapeutic efficiency on TNBS-induced colonitis (intestinal lumen area); format: in vivo; settings: 48 hours, model control 197660, normal control 130711
Method: (Please refer to A. Jemal, R. Siegel, J. Xu, et al. Ward. Clinicians, 2010, 277-300, and Intestinal Upregulation of Melanin-Concentrating Hormone in TNBS-Induced Enterocolitis in Adult Zebrafish. Plos One, 2013, 8(12):1524-1528).
Image analysis was performed by image analysis software, the area of zebrafish intestinal lumen was calculated, and quantitative analysis was carried out, and the statistical result was expressed with X±SE:
The therapeutic efficiency of the positive control group was calculated by replacing the treatment group in the above formula with the positive control group;

[8] = test system: TNBS-induced colonitis zebrafish model; test: inflammation resolution of TNBS-induced colonitis (intestinal neutrophils); settings: intestinal tract, 48 hours, model control 9.4, normal control 1.6
Method: Transgenic neutrophil fluorescent zebrafish of 3 days after fertilization was used to establish a zebrafish colonitis model after incubation for 48 h in water for fish containing a final concentration of 4.5 μM TNBS.
Model control group: TNBS-induced colonitis zebrafish model (model 2);
Positive control group: prednisone was added to water for fish at a final concentration of 15 μg/mL;
30 transgenic neutrophil fluorescent zebrafishes were treated in each experiment group for 48 hours;

[9] = stability of SOD at different pH; format: physicochemical; settings: pH 12
Method: as §1

zebrafish [10] = test: maximum non-lethal concentration (MNLC), 5 h treatment; format: in vivo; settings: 2000 μg/mL for 5 hours
Method: 30 zebrafishes were treated in each experiment group. During the course of the experiment, the dead zebrafishes were counted and removed. After the M-type SOD treatment, the number of dead zebrafishes in each experiment group was counted, and MNLC was determined. […] Therefore, the concentration of 2000 μg/mL was selected as the maximum concentration in the evaluation of anti-inflammatory effect of SOD.

Method for pepsin: Preparation of simulated gastric fluid: in accordance with the standard of the Pharmacopoeia 2010, namely: take dilute hydrochloric acid 16.4 ml (dilute hydrochloric acid: diluted hydrochloric acid 234 ml with water up to 1000 ml. The HCl contained in the solution should be 9.5% to 10.5%), add about 800 ml of water and pepsin 10 g (Sinopharm, 20141209) and shake well, then add water up to 1000 ml.
as §1

## C[C@]12C=CC(=O)C=C1CC[C@@H]1[C@@H]2C(=O)C[C@@]2(C)[C@H]1CC[C@]2(O)C(=O)CO [prednisone, reference compound]
[1]
  intestinal histopathology: intestinal mucosal histology was improved significantly

## COc1ccc2c(c1)c(CC(=O)O)c(C)n2C(=O)c1ccc(Cl)cc1 [indometacin, reference compound]
[2]; 60 μM
  Inflammation resolution rate (%): 88*** %
[3]; 60 μM
  Inflammation resolution rate (%): 62%
[4]; 60 μM
  Inflammation resolution rate (%): 72%

B1: M-type SOD: mutant high temperature resistant superoxide dismutase, amino acid sequence SEQ ID NO. 4; position 202 mutated from lysine to asparagine versus W-type SOD (protein)
chain: MPYPFKLPDLGYPYEALEPHIDAKTMEIHHQKHHGAYVTNLNAALEKYPYLHGVEVEVLLRHLAALPQDIQTAVRNNGGGHLNHSLFWRLLTPGGAKEPVGELKKAIDEQFGGFQALKEKLTQAAMGRFGSGWAWLVKDPFGKLHVLSTPNQDNPVMEGFTPIVGIDVWEHAYYLKYQNRRADYLQAIWNVLNWDVAEEFFNKA
modifications: amino acid sequence of M-type SOD
notes: position 202 mutated from lysine to asparagine versus W-type SOD
pepsin
  resistance against pepsin degradation: significantly better than ordinary SOD
Zebrafish [5]; 150 μg/mL
  Death rate (%): 0%
  Death (tail): 0 tail
Zebrafish [5]; 200 μg/mL
  Death rate (%): 20%
  Death (tail): 6 tail
Zebrafish [5]; 330 μg/mL
  Death rate (%): 100%
  Death (tail): 30 tail
Zebrafish [5]; 1000 μg/mL
  Death rate (%): 100%
  Death (tail): 30 tail
Zebrafish [5]; 3000 μg/mL
  Death rate (%): 100%
  Death (tail): 30 tail
Zebrafish [5]; zebrafish, treatment for 48 hours
  MNLC: 150 µg/mL
[1]; 50 μg/mL and 150 μg/mL
  intestinal histopathology: the inflammation of intestinal mucosa was significantly improved
[2]; model control 15.5
  numbers of neutrophils (mean ± SE): 14.9 and 14.9 ± 0.6
[2]; 15 μg/mL
  Inflammation resolution rate (%): 4%
[2]; 50 μg/mL
  Inflammation resolution rate (%): 24%
[2]; 150 μg/mL
  Inflammation resolution rate (%): 47%
[2]; 450 μg/mL
  Inflammation resolution rate (%): 77%
[2]; 1350 μg/mL
  Inflammation resolution rate (%): 91%
[2]; 2000 μg/mL
  Inflammation resolution rate (%): 92%
[6]
  thermal stability (remaining enzyme activity): maintained extremely high stability within a wider temperature range
[7]; 15 μg/mL in water for fish
  intestinal lumen area (mean ± SE): 153560 ± 6080
[7]; 50 μg/mL in water for fish
  intestinal lumen area (mean ± SE): 142595 ± 3167
[7]; 150 μg/mL in water for fish
  intestinal lumen area (mean ± SE): 141259 ± 5359
[8]; 15 μg/mL
  number of neutrophils (mean ± SE): 6.8 ± 0.88
[8]; 50 μg/mL
  number of neutrophils (mean ± SE): 5.6 ± 0.45
[8]; 150 μg/mL
  number of neutrophils (mean ± SE): 3.7 ± 0.53
[3]; 150 μg/mL
  Inflammation resolution rate (%): 29%
[3]; 450 μg/mL
  Inflammation resolution rate (%): 51%
[3]; 1350 μg/mL
  Inflammation resolution rate (%): 58%
[3]; 2000 μg/mL
  Inflammation resolution rate (%): 59%
[9]
  activity kept: 97%
[4]; 15 μg/mL
  Inflammation resolution rate (%): 0%
  numbers of neutrophils (mean ± SE): 17.7 and 17.7 ± 1.4
[4]; 50 μg/mL
  Inflammation resolution rate (%): 16%
  numbers of neutrophils (mean ± SE): 14.9 and 14.9 ± 1.0
[4]; 150 μg/mL
  Inflammation resolution rate (%): 31%
[4]; 450 μg/mL
  Inflammation resolution rate (%): 34%
[4]; 1350 μg/mL
  Inflammation resolution rate (%): 58%
[4]; 2000 μg/mL
  Inflammation resolution rate (%): 65%
Zebrafish [10]
  toxic effects on zebrafish: no toxic effects
